The values below come from PMC3169606, “Pub1p C-Terminal RRM Domain Interacts with Tif4631p through a Conserved Region Neighbouring the Pab1p Binding Site” (PLoS ONE, 2011).

Data set [1] concerns the target T1, Pub1p R12 (RRM1-RRM2) (Saccharomyces cerevisiae, UniProt P32588 32-242).
T1 sequence: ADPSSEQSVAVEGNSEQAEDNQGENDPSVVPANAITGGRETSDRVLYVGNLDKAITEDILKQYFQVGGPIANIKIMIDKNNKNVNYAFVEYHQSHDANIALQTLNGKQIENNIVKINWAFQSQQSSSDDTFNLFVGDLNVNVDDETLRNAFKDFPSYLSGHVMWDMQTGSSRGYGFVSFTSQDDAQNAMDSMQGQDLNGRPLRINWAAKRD
Put plainly: NMR titration; slow exchange; 25 mM potassium phosphate pH 7.0 (6.5-7.0 in general NMR methods), 25 mM NaCl, 0.5 mM DTT, 25 C; 100 µM protein, RNA up to 400 µM (R3) or 1:1 (R12). To be noted: protein: recombinant; tags: TrxA-6xHis tag removed by TEV; single strand.

Data set [2] has as its target T2, Pub1p R3 (RRM3, TRRM) (Saccharomyces cerevisiae, UniProt P32588 315-414).
T2 sequence: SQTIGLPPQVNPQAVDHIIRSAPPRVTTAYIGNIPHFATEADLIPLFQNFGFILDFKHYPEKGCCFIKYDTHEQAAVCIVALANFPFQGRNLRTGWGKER
Put plainly: NMR titration; 2:1 protein:RNA; 25 mM potassium phosphate pH 7.0 (6.5-7.0 in general NMR methods), 25 mM NaCl, 0.5 mM DTT, 25 C; 100 µM protein, RNA up to 400 µM (R3) or 1:1 (R12). Particulars: protein: recombinant; tags: TrxA-6xHis tag removed by TEV; chain copies: 2; single strand.

For data set [3], the target named is T2, Pub1p R3 (RRM3, TRRM). As to the kind of experiment: NMR titration; 1:1 protein:RNA; 25 mM potassium phosphate pH 7.0 (6.5-7.0 in general NMR methods), 25 mM NaCl, 0.5 mM DTT, 25 C; 100 µM protein, RNA up to 400 µM (R3) or 1:1 (R12). Particulars: protein: recombinant; tags: TrxA-6xHis tag removed by TEV; chain copies: 2; single strand.
Data set [4] deals with T3, Tif4631p (1–184) (Saccharomyces cerevisiae, UniProt P39935 1-184).
T3 construct: Tif4631p (yeast eIF4G1), Saccharomyces cerevisiae, residues 1-184; Cloned 'following equivalent methods' to the Pub1p constructs; source: E. coli BL21(DE3), purified (HisTrap, TEV digestion, second nickel column, anion exchange MonoQ); not shown: thioredoxin A, N-terminal, cleaved; His6, internal, cleaved
T3 sequence (looked up): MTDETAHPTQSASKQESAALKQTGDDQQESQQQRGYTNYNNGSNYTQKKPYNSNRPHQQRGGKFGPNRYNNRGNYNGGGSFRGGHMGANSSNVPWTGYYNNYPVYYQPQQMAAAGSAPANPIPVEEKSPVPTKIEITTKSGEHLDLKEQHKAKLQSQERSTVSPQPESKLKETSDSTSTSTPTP
As to the kind of experiment: cross-linking; glutaraldehyde by vapour diffusion, 16 h at 4°C; Pub1p proteins 10 µM, Tif4631p (1–402) 1 µM, Tif4631p (1–184) 4 µM; 25 mM potassium phosphate, 150 mM NaCl, 0.1 mM DTT, pH 8.0; 15% SDS-PAGE, silver stain. Particulars: both partners purified.

The target of data set [5] is T4, Tif4631p (1–402) (Saccharomyces cerevisiae, UniProt P39935 1-402).
T4 construct: Cloned 'following equivalent methods' to the Pub1p constructs (same modified pET28 vector); Unlabelled or 15N-labelled according to the NMR experiment; source: E. coli BL21(DE3), purified (HisTrap, TEV digestion, second nickel column, anion exchange MonoQ); not shown: thioredoxin A, N-terminal, cleaved; His6, internal, cleaved
T4 sequence (looked up): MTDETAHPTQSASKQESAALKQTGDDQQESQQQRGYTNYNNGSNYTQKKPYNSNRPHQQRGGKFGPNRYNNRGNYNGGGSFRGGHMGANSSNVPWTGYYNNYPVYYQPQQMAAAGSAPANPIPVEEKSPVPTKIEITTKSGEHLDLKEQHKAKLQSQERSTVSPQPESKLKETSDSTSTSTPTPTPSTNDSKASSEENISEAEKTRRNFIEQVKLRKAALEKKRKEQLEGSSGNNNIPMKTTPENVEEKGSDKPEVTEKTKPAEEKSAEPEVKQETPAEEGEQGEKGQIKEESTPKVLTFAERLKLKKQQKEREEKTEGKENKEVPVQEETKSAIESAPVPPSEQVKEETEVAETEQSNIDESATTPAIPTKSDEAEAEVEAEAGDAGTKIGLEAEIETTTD
Put plainly: NMR titration; 1H-15N HSQC of 100 µM 15N-labelled Tif4631p (1–402) with 120 µM unlabelled Pub1p R3 added; 25 mM potassium phosphate pH 7.0, 25 mM NaCl, 0.1 mM DTT, 25°C. To be noted: both partners purified.

Data set [6] has as its target T2, Pub1p R3 (RRM3, TRRM). As to the kind of experiment: NMR titration; 1:1 protein:RNA; Kd n.d.; 25 mM potassium phosphate pH 7.0 (6.5-7.0 in general NMR methods), 25 mM NaCl, 0.5 mM DTT, 25 C; 100 µM protein, RNA up to 400 µM (R3) or 1:1 (R12). To be noted: protein: recombinant; tags: TrxA-6xHis tag removed by TEV; chain copies: 2; single strand.
Data set [7] has as its target T1, Pub1p R12 (RRM1-RRM2). As to the kind of experiment: NMR titration; intermediate exchange; 25 mM potassium phosphate pH 7.0 (6.5-7.0 in general NMR methods), 25 mM NaCl, 0.5 mM DTT, 25 C; 100 µM protein, RNA up to 400 µM (R3) or 1:1 (R12). To be noted: protein: recombinant; tags: TrxA-6xHis tag removed by TEV; single strand.

Bounds are passed on as bounds.

On to UUUUUUUUUUUUUU (ssRNA) [U14], for which the Kd (in general, the free concentration of one partner at which half of the binding sites on the other are occupied at equilibrium, for simple one-to-one binding) in data set [1] is less than 0.25 µM; in data set [2] it was 2.16 µM.

In the case of CUCUCUCUCUCU (ssRNA) [(CU)6], the dissociation constant (Kd) in data set [3] came out at 18.8 µM.

B1: Pub1p R3 (RRM3 domain, residues 315–414) (domain or fragment, Saccharomyces cerevisiae, UniProt P32588 315-414, looked up)
chain: T2 sequence
notes: also called Pub1p TRRM; Pub1p RRM3; source: E. coli BL21(DE3), purified (HisTrap, TEV digestion, second nickel column, cation exchange); not shown: thioredoxin A, N-terminal, cleaved; His6, internal, cleaved
Consider B1, for which the binding result in data set [4] and in data set [5] was “binds” throughout.

Regarding UUUUUUUUUU (ssRNA) [U10], the binding result in data set [6] is “binds”.

Turning to AAAAAAAAAAAAAA (ssRNA) [A14], in data set [2], the Kd was determined as 78.5 µM. As for UUUUUUUUUUUU (ssRNA) [U12], the binding result in data set [6] is recorded as “binds”. On to UAUAUAUAUAUAUA (ssRNA) [(UA)7], for which the dissociation constant (Kd) was 0.894 µM in data set [7] and less than 1 µM in data set [2]. Turning to AGAGAGAG (ssRNA) [(AG)4], the equilibrium dissociation constant (Kd) in data set [3] is 88.3 µM. Take UAUAUAUAUAUA (ssRNA) [(UA)6]: the binding result in data set [6] is “binds”.
